How the values were obtained:
[1] = SDS-PAGE/Western blot of non-boiled culture supernatant; self-association of subunits
[2] = SDS-PAGE/Western blot of non-boiled culture supernatant, 20 uM biotin in medium; self-association of subunits

B1: streptavidin mutein M4 (T76R, V125R, V55T, L109T), secreted by B. subtilis (protein)
chain: DPSKDSKAQVSAAEAGITGTWYNQLGSTFIVTAGADGALTGTYESAVGNAESRYTLTGRYDSAPATDGSGTALGWRVAWKNNYRNAHSATTWSGQYVGGAEARINTQWTLTSGTTEANAWKSTLRGHDTFTKVKPSAASIDAAKKAGVNNGNPLDAVQQ
- % monomer, no additional biotin [1]: 100%
- % monomer, with additional biotin [2]: 100%
